Biological target: T1, E. coli Skp with N-terminal 6xHis tag, purified (E. coli, UniProt P0AEU7 21-161)
T1 sequence (looked up): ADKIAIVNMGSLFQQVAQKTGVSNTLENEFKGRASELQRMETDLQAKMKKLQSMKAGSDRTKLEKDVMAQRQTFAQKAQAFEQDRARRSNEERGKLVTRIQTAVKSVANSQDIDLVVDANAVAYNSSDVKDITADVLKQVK
Assay: cell-based or functional assay

B1: Moraxella catarrhalis transferrin binding protein B, C-terminal flag-tag (natural protein)
chain: CGGSGGSNPPAPTPIPNASGSGNTGNTGNAGGTDNTANAGNTGGASSGTGSANTPEPKYQDVPTDKNEKEQVSPIQEPAMGYGMALSKINLHNRQDTPLDEKNIITLDGKKQVAEGKKSPLPFSLDVENKLLDGYIAKMDKADKNAIRRRIESENKAKPLSEAELAEKIKEAVRKSYEFQQVMTSLENKIFHSNDGTTKATTRDLQYVDYGYYLANDANYLTVKTDKPKLWNSGPVGGVFYNGSTTAKELPTQDAVKYKGHWDFMTDVANKGNRFSEVKGTRQAGWWYGASSKDEYNRLLTDEKNKPDGYNGEYGHSSEFTVNFKEKKLTGGLFSNLQDSHKQKVTKTKRYDIDANIHGNRFRGSAIASDKEKDSETKHPFTSDAKDRLEGGFYGPKGEELAGKFLTDDNKLFGVFGAKQESKADKTEAILDAYALGAFNKNDANTFTPFTKKQLDNFGNAKKLVLGSTVINLVSTDATKNEFTEDKPKSATNKAGETLMVNDKVSVKTYGYGRNFEYLKFGELSVGGSHSVFLQGERTATTGDKAVPTEGKAKYLGNWVGYITGTGTGKSFNEAQDIADFDIDFKNKTVNGKLTTKGRTDPVFNITGEISGNGWTGKASTAKADAGGYNIDSNGTNKSIVIRDADVTGGFYGPNATEMGGSFTHNTNDSKASVVFGTKRQEEVKP
modifications: lipidated (processed by Lgt, Lsp, and Lnt)
Q: Which “protection of urea-unfolded purified TbpB from proteinase K with Skp (and LolA) added to empty liposomes, against SurA + Slam1 proteoliposomes (3.5% protection)” value does the source give for B1 here?
A: ≤ 10%
